Source: paper PMC9482650, “Quantitative fragmentomics allow affinity mapping of interactomes” (Nature Communications, 2022)

Assays:
Assay in all cases: holdup assay
Design in all cases: key: below the threshold = too weak to quantify, mostly under pKd 3.1 to 4
[1] = molecular target: LDB3, O75112
[2] = molecular target: SCRIB_1, Q14160
[3] = molecular target: CASK, O14936
[4] = molecular target: DLG2_3, Q15700
[5] = molecular target: GRID2IP_1, A4D2P6
[6] = molecular target: T1, NHERF3_1, Q5T2W1
T1 sequence (Q5T2W1 4-100, limits assumed, looked up): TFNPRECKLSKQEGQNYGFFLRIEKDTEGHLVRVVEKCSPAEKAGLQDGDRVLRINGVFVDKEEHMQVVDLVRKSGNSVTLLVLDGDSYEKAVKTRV

[7] = molecular target: T2, LIN7C, Q9NUP9
T2 sequence (Q9NUP9 88-185, limits assumed, looked up): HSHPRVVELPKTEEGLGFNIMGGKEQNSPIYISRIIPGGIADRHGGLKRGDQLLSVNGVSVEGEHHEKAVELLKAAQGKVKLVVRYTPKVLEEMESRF

[8] = molecular target: T3, APBA3_1, O96018
T3 sequence (O96018 389-490, limits assumed, looked up): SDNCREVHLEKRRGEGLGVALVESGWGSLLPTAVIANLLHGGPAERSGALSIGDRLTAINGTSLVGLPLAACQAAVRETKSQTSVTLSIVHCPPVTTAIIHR

[9] = molecular target: DLG5_1, Q8TDM6
[10] = molecular target: GOPC, Q9HD26
[11] = molecular target: MAGI2_2, Q86UL8
[12] = molecular target: T4, DFNB31_3, Q9P202
T4 sequence (Q9P202 811-907, limits assumed, looked up): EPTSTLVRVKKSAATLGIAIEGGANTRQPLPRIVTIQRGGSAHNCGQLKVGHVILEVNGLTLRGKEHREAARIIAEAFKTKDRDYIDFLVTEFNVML

[13] = molecular target: FRMPD4, Q14CM0
[14] = molecular target: GIPC2, Q8TF65
[15] = molecular target: DLG2_2, Q15700
[16] = molecular target: GRIP2_6, Q9C0E4
[17] = molecular target: T5, MPDZ_12, O75970
T5 sequence (O75970 1857-1958, limits assumed, looked up): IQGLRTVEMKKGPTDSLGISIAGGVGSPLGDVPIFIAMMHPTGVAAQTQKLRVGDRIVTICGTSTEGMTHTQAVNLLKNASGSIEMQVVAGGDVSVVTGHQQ

[18] = molecular target: T6, SNTA1, Q13424
T6 sequence (Q13424 82-180, limits assumed, looked up): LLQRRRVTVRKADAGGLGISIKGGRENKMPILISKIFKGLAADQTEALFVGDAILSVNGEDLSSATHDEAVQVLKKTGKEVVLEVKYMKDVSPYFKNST

[19] = molecular target: Inadl_1, Q8NI35
[20] = molecular target: NHERF2_2, Q15599
[21] = molecular target: IL16_4, Q14005
[22] = molecular target: TJP1_3, Q07157
[23] = molecular target: T7, PARD3B_1, Q8TEW8
T7 sequence (Q8TEW8 196-299, limits assumed, looked up): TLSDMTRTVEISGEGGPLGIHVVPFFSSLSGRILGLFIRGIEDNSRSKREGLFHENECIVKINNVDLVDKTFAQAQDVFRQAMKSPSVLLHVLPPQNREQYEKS

[24] = molecular target: FRMPD2_2, Q68DX3
[25] = molecular target: MAGI2_3, Q86UL8
[26] = molecular target: T8, RAPGEF6, Q8TEU7
T8 sequence (Q8TEU7 525-625, limits assumed, looked up): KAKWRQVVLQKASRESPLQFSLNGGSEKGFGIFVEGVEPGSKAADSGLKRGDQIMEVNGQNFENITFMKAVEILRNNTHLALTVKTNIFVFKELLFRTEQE

[27] = molecular target: T9, MPDZ_10, O75970
T9 sequence (O75970 1624-1722, limits assumed, looked up): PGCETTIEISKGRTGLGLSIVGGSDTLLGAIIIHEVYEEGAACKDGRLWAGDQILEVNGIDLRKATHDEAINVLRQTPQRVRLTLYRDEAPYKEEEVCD

[28] = molecular target: T10, SNTG1, Q9NSN8
T10 sequence (Q9NSN8 52-150, limits assumed, looked up): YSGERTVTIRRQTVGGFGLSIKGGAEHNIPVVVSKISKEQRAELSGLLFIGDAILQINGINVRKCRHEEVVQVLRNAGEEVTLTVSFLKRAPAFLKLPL

[29] = plain residues with an end cap or a label only (N-terminal biotin on a linker: ahx)
[30] = plain residues with an end cap or a label only (N-terminal biotin on a linker: (peg)3)
[31] = plain residues with an end cap or a label only (N-terminal biotin on a linker: ado-ado)

Sequence of GRID2IP_1, A4D2P6 (A4D2P6 1-87): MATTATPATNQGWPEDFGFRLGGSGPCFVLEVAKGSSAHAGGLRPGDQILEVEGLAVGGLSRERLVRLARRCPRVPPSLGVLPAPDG
Sequence of Inadl_1, Q8NI35 (Q8NI35 113-229): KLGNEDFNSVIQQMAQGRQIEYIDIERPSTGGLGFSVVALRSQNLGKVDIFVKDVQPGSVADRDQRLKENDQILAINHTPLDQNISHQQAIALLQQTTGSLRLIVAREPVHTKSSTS
Sequence of LDB3, O75112 (O75112 1-94): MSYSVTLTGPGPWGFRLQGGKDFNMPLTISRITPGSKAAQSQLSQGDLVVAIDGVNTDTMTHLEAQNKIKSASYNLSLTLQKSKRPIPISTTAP
Sequence of DLG5_1, Q8TDM6 (Q8TDM6 617-713): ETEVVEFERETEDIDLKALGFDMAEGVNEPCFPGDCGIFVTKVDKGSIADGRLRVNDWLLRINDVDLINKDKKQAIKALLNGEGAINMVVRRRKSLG
Sequence of GIPC2, Q8TF65 (Q8TF65 112-203): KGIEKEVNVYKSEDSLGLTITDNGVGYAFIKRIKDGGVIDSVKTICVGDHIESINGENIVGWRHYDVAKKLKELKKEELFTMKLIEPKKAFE
Sequence of MAGI2_3, Q86UL8 (Q86UL8 600-682): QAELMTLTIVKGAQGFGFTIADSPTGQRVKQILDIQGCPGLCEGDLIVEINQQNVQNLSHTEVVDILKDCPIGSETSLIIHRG
Sequence of FRMPD2_2, Q68DX3 (Q68DX3 944-1038): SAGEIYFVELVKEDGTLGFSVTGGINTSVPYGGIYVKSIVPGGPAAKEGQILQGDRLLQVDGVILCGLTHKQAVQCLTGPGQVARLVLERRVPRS
Sequence of MAGI2_2, Q86UL8 (Q86UL8 410-522): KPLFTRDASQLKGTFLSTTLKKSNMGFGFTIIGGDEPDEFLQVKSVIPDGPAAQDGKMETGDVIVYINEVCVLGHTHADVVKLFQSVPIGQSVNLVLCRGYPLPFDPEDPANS
Sequence of IL16_4, Q14005 (Q14005 1229-1329): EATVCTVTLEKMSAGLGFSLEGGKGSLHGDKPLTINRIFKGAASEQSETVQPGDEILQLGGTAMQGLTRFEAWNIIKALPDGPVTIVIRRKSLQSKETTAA
Sequence of SCRIB_1, Q14160 (Q14160 718-814): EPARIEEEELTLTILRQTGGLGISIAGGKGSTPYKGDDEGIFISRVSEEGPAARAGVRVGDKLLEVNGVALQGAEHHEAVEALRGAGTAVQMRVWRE
Sequence of NHERF2_2, Q15599 (Q15599 142-238): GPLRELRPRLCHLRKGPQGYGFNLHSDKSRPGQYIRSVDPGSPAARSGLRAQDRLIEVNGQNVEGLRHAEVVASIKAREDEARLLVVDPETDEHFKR
Sequence of TJP1_3, Q07157 (Q07157 416-512): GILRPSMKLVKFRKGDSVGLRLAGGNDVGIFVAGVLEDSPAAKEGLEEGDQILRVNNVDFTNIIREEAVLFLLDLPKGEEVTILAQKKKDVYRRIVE
Sequence of CASK, O14936 (O14936 487-570): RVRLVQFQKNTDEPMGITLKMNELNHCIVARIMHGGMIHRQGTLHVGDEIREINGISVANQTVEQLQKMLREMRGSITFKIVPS
Sequence of GRIP2_6, Q9C0E4 (Q9C0E4 648-740): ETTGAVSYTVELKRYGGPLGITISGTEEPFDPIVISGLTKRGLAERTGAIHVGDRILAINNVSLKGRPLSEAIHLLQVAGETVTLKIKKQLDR
Sequence of FRMPD4, Q14CM0 (Q14CM0 67-160): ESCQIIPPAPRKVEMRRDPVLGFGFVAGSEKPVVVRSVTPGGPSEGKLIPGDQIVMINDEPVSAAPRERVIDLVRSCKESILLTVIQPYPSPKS

In the case of TQKFRASTAL [FRMPD1, Q5SYB0], the pKd [1, 29] is reported as “below the threshold”, the pKd [2, 29] is reported as 4.22 and the pKd [3, 29] is reported as “below the threshold”. The pKd [4, 29] was “below the threshold”, the pKd [5, 29] was “below the threshold” and the pKd [6, 29] was 5.47. For the same binder, the pKd [7, 29] was 3.52, the pKd [8, 29] was “below the threshold” and the pKd [9, 29] was “below the threshold”. For the same binder, the pKd [10, 29] was 4.12, the pKd [11, 29] was 4.18 and the pKd [12, 29] was “below the threshold”. For the same binder, the pKd [13, 29] was 3.73, the pKd [14, 29] was “below the threshold” and the pKd [15, 29] was 4.17. For the same binder, the pKd [16, 29] was “below the threshold”, the pKd [17, 29] was “below the threshold” and the pKd [18, 29] was “below the threshold”. For the same binder, the pKd [19, 29] was “below the threshold”, the pKd [20, 29] was 4.03 and the pKd [21, 29] was “below the threshold”. The pKd [22, 29] was “below the threshold”, the pKd [23, 29] was “below the threshold” and the pKd [24, 29] was “below the threshold”. For the same binder, the pKd [25, 29] was “below the threshold”, the pKd [26, 29] was “below the threshold” and the pKd [27, 29] was “below the threshold”. The pKd [28, 29] was “below the threshold”.

For RRRRSQSRESQC [HBV-HBc, P03193], the pKd [1, 30] was “below the threshold”, the pKd [2, 30] was 4.48 and the pKd [3, 30] was “below the threshold”. For the same binder, the pKd [4, 30] was 4.18, the pKd [5, 30] was “below the threshold” and the pKd [6, 30] was 4.44. The pKd [7, 30] was 3.66, the pKd [8, 30] was “below the threshold” and the pKd [9, 30] was “below the threshold”. The pKd [10, 30] was “below the threshold”, the pKd [11, 30] was 4.4 and the pKd [12, 30] was “below the threshold”. The pKd [13, 30] was “below the threshold”, the pKd [14, 30] was 4.39 and the pKd [15, 30] was 4.22. The pKd [16, 30] was “below the threshold”, the pKd [17, 30] was “below the threshold” and the pKd [18, 30] was 4.44. The pKd [19, 30] was “below the threshold”, the pKd [20, 30] was “below the threshold” and the pKd [21, 30] was 3.68. The pKd [22, 30] was “below the threshold”, the pKd [23, 30] was “below the threshold” and the pKd [24, 30] was “below the threshold”. For the same binder, the pKd [25, 30] was “below the threshold”, the pKd [26, 30] was “below the threshold” and the pKd [27, 30] was “below the threshold”. For the same binder, the pKd [28, 30] was “below the threshold”.

In the case of PTPDLPQTRV [KLHDC7A, Q5VTJ3], the pKd [1, 31] is reported as “below the threshold”, the pKd [2, 31] is reported as “below the threshold” and the pKd [3, 31] is reported as “below the threshold”. For the same binder, the pKd [4, 31] was 3.91, the pKd [5, 31] was “below the threshold” and the pKd [6, 31] was 4.36. The pKd [7, 31] was 3.49, the pKd [8, 31] was “below the threshold” and the pKd [9, 31] was “below the threshold”. The pKd [10, 31] was 4.89, the pKd [11, 31] was 3.86 and the pKd [12, 31] was 4.1. The pKd [13, 31] was 3.48, the pKd [14, 31] was “below the threshold” and the pKd [15, 31] was “below the threshold”. The pKd [16, 31] was “below the threshold”, the pKd [17, 31] was “below the threshold” and the pKd [18, 31] was 4.81. The pKd [19, 31] was “below the threshold”, the pKd [20, 31] was “below the threshold” and the pKd [21, 31] was 3.5. The pKd [22, 31] was “below the threshold”, the pKd [23, 31] was 3.72 and the pKd [24, 31] was 3.8. The pKd [25, 31] was 3.77, the pKd [26, 31] was “below the threshold” and the pKd [27, 31] was 3.52. The pKd [28, 31] was 4.36.

With NTANRRTTPV [CACNG2, Q9Y698] the pKd [1, 31] was “below the threshold”, the pKd [2, 31] was 3.49 and the pKd [3, 31] was “below the threshold”. For the same binder, the pKd [4, 31] was 4.82, the pKd [5, 31] was “below the threshold” and the pKd [6, 31] was “below the threshold”. For the same binder, the pKd [7, 31] was “below the threshold”, the pKd [8, 31] was “below the threshold” and the pKd [9, 31] was “below the threshold”. For the same binder, the pKd [10, 31] was “below the threshold”, the pKd [11, 31] was 4.98 and the pKd [12, 31] was “below the threshold”. For the same binder, the pKd [13, 31] was “below the threshold”, the pKd [14, 31] was “below the threshold” and the pKd [15, 31] was 4.53. For the same binder, the pKd [16, 31] was “below the threshold”, the pKd [17, 31] was “below the threshold” and the pKd [18, 31] was 4.1. For the same binder, the pKd [19, 31] was “below the threshold”, the pKd [20, 31] was “below the threshold” and the pKd [21, 31] was “below the threshold”. The pKd [22, 31] was “below the threshold”, the pKd [23, 31] was “below the threshold” and the pKd [24, 31] was 3.59. The pKd [25, 31] was “below the threshold”, the pKd [26, 31] was “below the threshold” and the pKd [27, 31] was 3.87. The pKd [28, 31] was “below the threshold”.

For NTLNRKTTPV [CACNG8, Q8WXS5], the pKd [1, 31] was “below the threshold”, the pKd [2, 31] was 3.64 and the pKd [3, 31] was “below the threshold”. The pKd [4, 31] was 4.9, the pKd [5, 31] was “below the threshold” and the pKd [6, 31] was 3.48. For the same binder, the pKd [7, 31] was “below the threshold”, the pKd [8, 31] was “below the threshold” and the pKd [9, 31] was “below the threshold”. The pKd [10, 31] was 3.72, the pKd [11, 31] was 4.93 and the pKd [12, 31] was “below the threshold”. For the same binder, the pKd [13, 31] was “below the threshold”, the pKd [14, 31] was “below the threshold” and the pKd [15, 31] was 4.61. For the same binder, the pKd [16, 31] was “below the threshold”, the pKd [17, 31] was “below the threshold” and the pKd [18, 31] was 3.93. For the same binder, the pKd [19, 31] was “below the threshold”, the pKd [20, 31] was “below the threshold” and the pKd [21, 31] was 3.59. For the same binder, the pKd [22, 31] was “below the threshold”, the pKd [23, 31] was “below the threshold” and the pKd [24, 31] was 3.85. For the same binder, the pKd [25, 31] was 3.85, the pKd [26, 31] was “below the threshold” and the pKd [27, 31] was 3.84. For the same binder, the pKd [28, 31] was “below the threshold”.
